Consider 29 sequences from the supplement of paper PMC9170038.

This data set deals with MS2 coat protein. As to the kind of experiment: apparent KD of MS2 coat protein; designed switch direction (-1 OFF switch, 1 ON switch): -1; higher = weaker reporter binding. Put shortly:
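Stalled E. coli RNA polymerase transcribed designed RNA switches on Illumina chips, which were then titrated with SNAP-549-labelled MS2 coat protein, doubling from 0.7 or 1.5 nM to 3 µM. Steps lasted from 0.8–1.5 h at the lowest concentration to 10–20 min at the highest. The apparent KD is each design's median over clusters of curve-fitted normalised fluorescence.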

[1] abbreviates: input ligand: microRNA oligo, concentration not stated.
Where [2] appears, read: Eterna round: R95, input ligand: microRNA oligo, concentration not stated.
[3] abbreviates: Eterna round: R95, input ligand: FMN 200 uM.
Where [4] appears, read: Eterna round: R95, input ligand: none.

For the sequence “ACAUGAGGAUCACCCAUGUGGACGAAAAGGCUCAUGUAGAGUGAGGAUAUGUGAGACGAACGAGAACAGAAGGCACAAGACAGG [Deportation 5 - Jieux - Exclusion NG 3] (Eterna round: R96, puzzle: Exclusion NG 3)”, the “apparent KD of MS2 coat protein” value (input ligand: FMN 200 uM) came out at 17.4 nM, the “apparent KD of MS2 coat protein” value under setting [1] came out at 22.3 nM and the “apparent KD of MS2 coat protein” value (input ligand: none) was determined as 20 nM.

For the sequence “ACAUGAGGAUCACCCAUGUUAACGAAAAGGCUCAUGUAGAGUGAGGAUAUGUGAGACGAACGAGAACAGAAGGCACAAGACAGG [Deportation 2 - Jieux - Exclusion NG 3] (Eterna round: R96, puzzle: Exclusion NG 3)”, the “apparent KD of MS2 coat protein” value was determined as 24.2 nM (input ligand: FMN 200 uM), 15.2 nM under setting [1] and 22.3 nM (input ligand: none).

With “ACAUGAGGAUCACCCAUGUUUGGCUGGUUUUCUCCGGCUGUCGAGGAUAUAGUCCGGUAUCCGCGCUAGAAGGUGAGGGUUGGC [Aenatbe mod 4] (Eterna round: R96, puzzle: Exclusion NG 3)”, the “apparent KD of MS2 coat protein” value (input ligand: FMN 200 uM) turned out to be 22.5 nM, the “apparent KD of MS2 coat protein” value under setting [1] is 14.2 nM and the “apparent KD of MS2 coat protein” value (input ligand: none) worked out at 22.8 nM.

For “ACAUGAGGAUCACCCAUGUUUGUUGGGUACUCUUUUUACAGCAAGGAUAUGCAUGUUUUUUUUACGCAGAAGGUGCUGGACGUC [JR_ExcNG3_Sub068] (Eterna round: R96, puzzle: Exclusion NG 3)”, the “apparent KD of MS2 coat protein” value (input ligand: FMN 200 uM) is 381 nM, the “apparent KD of MS2 coat protein” value under setting [1] is 163 nM and the “apparent KD of MS2 coat protein” value (input ligand: none) was 653 nM.

Turning to “ACAUGAGGAUCACCCAUGUUUUUCGGGUACUCUUGAUACAGCAAGGAUAUGCAUUAUUUAUGUACGCAGAAGGUGCAUUACGUC [JR_ExcNG3_Sub064] (Eterna round: R96, puzzle: Exclusion NG 3)”, the “apparent KD of MS2 coat protein” value reads like this: (input ligand: FMN 200 uM) 104 nM; under setting [1], 67 nM; (input ligand: none) 71.9 nM.

Consider “ACAUGAGGAUCACCCAUGUUUUUCGGGUACUCUUUUUACAGCAAGGAUAUGCAUUAUUUUUUUACGCAGAAGGUGCUUUACGUC [JR_ExcNG3_Sub066] (Eterna round: R96, puzzle: Exclusion NG 3)”, for which the “apparent KD of MS2 coat protein” value under setting [1] amounted to 116 nM.

For the sequence “ACAUGUAAUGCAGGAUAUGGGACACAUGAGGAUCACCCAUGUGACCAUAUGUAAUGCUAAGAGUCUCAGAAGGGUAUGUACAUG [Ex NG2 #46] (Eterna round: R96, puzzle: Exclusion NG 2)”, the “apparent KD of MS2 coat protein” value by setting is: (input ligand: FMN 200 uM) 15.2 nM; under setting [1], 7.56 nM; (input ligand: none) 12.9 nM.

“ACAUGUAUUGCAGGAUAUGGGACACAUGAGGAUCACCCAUGUGACCAUAUGUAAUGCCACGGGUCUCAGAAGGGUAUGUACAUG [Ex NG2 #44] (Eterna round: R96, puzzle: Exclusion NG 2)”: the “apparent KD of MS2 coat protein” value reads like this: (input ligand: FMN 200 uM) 12.8 nM; under setting [1], 10.3 nM; (input ligand: none) 14.1 nM.

For “ACAUGUAUUGCAGGAUAUGGGACACAUGAGGAUCACCCAUGUGACCAUAUGUAAUGCUAAGAGUCUCAGAAGGGUAUGUACAUG [Ex NG2 #45] (Eterna round: R96, puzzle: Exclusion NG 2)”, the “apparent KD of MS2 coat protein” value reads like this: (input ligand: FMN 200 uM) 10.7 nM; under setting [1], 8.59 nM; (input ligand: none) 11.4 nM.

For “ACAUGUCAUCGAGGAUAUUGGACACAUGAGGAUCACCCAUGUACUCGGAGGCUCUACCAUGAGUUCGAGAAGGCGAUGUACAUG [Ex NG2 #76] (Eterna round: R96, puzzle: Exclusion NG 2)”, the “apparent KD of MS2 coat protein” value runs as follows: (input ligand: FMN 200 uM) 651 nM; under setting [1], 316 nM; (input ligand: none) 365 nM.

“ACAUGUCAUCGAGGAUAUUGUACACAUGAGGAUCACCCAUGUACUCGGUUGCUCUAGCAUGCGUUCGAGAAGGCGAUGUACAUU [Ex NG2 #98] (Eterna round: R96, puzzle: Exclusion NG 2)”: the “apparent KD of MS2 coat protein” value runs as follows: (input ligand: FMN 200 uM) 52 nM; under setting [1], 88.8 nM; (input ligand: none) 144 nM.

Regarding “ACAUGUCAUCGAGGAUAUUGUACACAUGAGGAUCACCCAUGUAUUCGGUUGCUCUCGCGUGAGUUCGAGAAGGCGAUGUACAUU [Ex NG2 #82] (Eterna round: R96, puzzle: Exclusion NG 2)”, the “apparent KD of MS2 coat protein” value is, setting by setting: (input ligand: FMN 200 uM) 105 nM; under setting [1], 24.2 nM; (input ligand: none) 29.3 nM.

As to “ACAUGUCAUUGAGGAUAUUGCACACAUGAGGAUCACCCAUGUAUACGGAUGCUCUUCCGUGAGUUCGAGAAGGCGAUGUACAUU [Ex NG2 #90] (Eterna round: R96, puzzle: Exclusion NG 2)”, the “apparent KD of MS2 coat protein” value is, setting by setting: (input ligand: FMN 200 uM) 71.3 nM; under setting [1], 38.6 nM; (input ligand: none) 60.7 nM.

For the sequence “ACAUGUCAUUGAGGAUAUUGCACACAUGAGGAUCACCCAUGUAUACGGUUGCUCUUACGUGAGUUCGAGAAGGCGAUGUACAUU [Ex NG2 #88] (Eterna round: R96, puzzle: Exclusion NG 2)”, the “apparent KD of MS2 coat protein” value (input ligand: FMN 200 uM) was found to be 153 nM, the “apparent KD of MS2 coat protein” value under setting [1] is 123 nM and the “apparent KD of MS2 coat protein” value (input ligand: none) amounted to 181 nM.

Turning to “ACAUGUCUUGUAGGAUAUAGUUGACAUGAGGAUCACCCAUGUUGAUUCAUGUCUAUGGAAACGGACUAGAAGGACGAGAAUAUG [Ex NG2 #17] (Eterna round: R96, puzzle: Exclusion NG 2)”, the “apparent KD of MS2 coat protein” value by setting is: (input ligand: FMN 200 uM) 50.5 nM; under setting [1], 25.3 nM; (input ligand: none) 25.9 nM.

Regarding “ACAUGUUAUCCAUGAUAUCACAUGAGGAUCACCCAUGUUAUGGCGAUUUUGAGGUGUAAGUUUGUUGCUCGUCUUAU [JR_STOV1_Sub059] (Eterna round: R97, puzzle: Sensor, turn-off variant 1)”, the “apparent KD of MS2 coat protein” value (input ligand: FMN 200 uM) was 54.5 nM and the “apparent KD of MS2 coat protein” value (input ligand: none) was found to be 65.3 nM.

On to “ACAUGUUGCGCAGGAUAUGAGACACAUGAGGAUCACCCAUGUGGCUACAUGUCAUACCAAGCGUCUCAGAAGGGUGUGAACAUG [Ex NG2 #34] (Eterna round: R96, puzzle: Exclusion NG 2)”, for which the “apparent KD of MS2 coat protein” value runs as follows: (input ligand: FMN 200 uM) 18.7 nM; under setting [1], 11.7 nM; (input ligand: none) 18.1 nM.

As to “ACAUUACAUGAGGAUCACCCAUGUGAGGAUAUGGAGCGAGAGUGUCCUGUCGCGUACACCAGAAGGCGCGGGUG [1st #50] (Eterna round: R97, puzzle: Exclusion 1)”, the “apparent KD of MS2 coat protein” value is 235 nM (input ligand: FMN 200 uM) and 80.1 nM (input ligand: none).

Regarding “ACAUUGUGAGGAUAUCCGAAGAAGGUCCGGAAGGUUCGGGUGGAGAAGGCACAUGAGGAUCACCCAUGUGUGGG [Excls4-VIII] (puzzle: Exclusion 4)”, the “apparent KD of MS2 coat protein” value under setting [2] was 39.3 nM.

Turning to “ACCAAGUCAGGAUAUCCAGUUAGCCUUCGAGGCUGGGAAUAGGAGAAGGGACAUGAGGAUCACCCAUGUGGGCC [Eternabot (L2) Solution 78] (Eterna round: R97, puzzle: Exclusion 4)”, the “apparent KD of MS2 coat protein” value (input ligand: FMN 200 uM) came to 215 nM and the “apparent KD of MS2 coat protein” value (input ligand: none) stood at 54.4 nM.

With “ACCAUGUUAGGAUAUGCGUGGCAUAGACCGGUCUAUCCGCGGUAGAAGGGACAUGAGGAUCACCCAUGUGCGAG [Eternabot (L2) Solution 85] (Eterna round: R97, puzzle: Exclusion 4)”, the “apparent KD of MS2 coat protein” value reads like this: (input ligand: FMN 200 uM) 41.5 nM; (input ligand: none) 32.3 nM.

For “ACCCAACAUGAGGAUCACCCAUGUCAGGAUAUCCAAGCGAAAGCAAAAGCGAAAGCAAGGAGAAGGGACAGAGG [ChP 04-04-2015 #6] (puzzle: Exclusion 1)”, the “apparent KD of MS2 coat protein” value is, setting by setting: under setting [3], 308 nM; under setting [2], 90 nM; under setting [4], 180 nM.

With “ACCCAACAUGAGGAUCACCCAUGUCAGGAUAUCCUCGGGAAACCAAAAGAGGAGCCGAGGAGAAGGGACAGAGG [ChP 04-04-2015 #5] (puzzle: Exclusion 1)”, the “apparent KD of MS2 coat protein” value reads like this: under setting [3], 124 nM; under setting [2], 233 nM; under setting [4], 227 nM.

Regarding “ACCCUAAUCGUGAGGAUAUACUGCGUCAAAGACGGGUAGAAGGUACAUGAGGAUCACCCAUGUUUGGCUACUAA [Eternabot (L2) Solution 48] (Eterna round: R97, puzzle: Brourd's mod of Exclusion 4)”, the “apparent KD of MS2 coat protein” value runs as follows: (input ligand: FMN 200 uM) 28.3 nM; (input ligand: none) 27.7 nM.

Regarding “ACCCUCCCGCAGGAUAUAAUAAAGUGGUACUUAUUAGAAGGGCGUACAUGAGGAUCACCCAUGUCGUGACGUGC [Eternabot (L1) Solution 5] (Eterna round: R97, puzzle: Exclusion 6)”, the “apparent KD of MS2 coat protein” value (input ligand: FMN 200 uM) came to 25.5 nM and the “apparent KD of MS2 coat protein” value (input ligand: none) is 25.9 nM.

Take “ACCGAACAUGAGGAUCACCCAUGUGAGGAUAUCCCGAGAUUAAAUGCCGCAAGAAGGCGGAGAAGGCGCAUGGG [Ditiesre] (puzzle: Exclusion 1)”: the “apparent KD of MS2 coat protein” value reads like this: under setting [3], 45.2 nM; under setting [2], 23.7 nM; under setting [4], 31.3 nM.

“ACCUACCAGCUAGGAUAUGCAGUACAGUAAAAUGUAGAAGGAGCACGAUCCAGACAUGAGGAUCACCCAUGUGGGCGGUAGGCA [Errage] (Eterna round: R96, puzzle: Exclusion NG 1)”: the “apparent KD of MS2 coat protein” value by setting is: (input ligand: FMN 200 uM) 14.4 nM; under setting [1], 14 nM; (input ligand: none) 16.9 nM.

Take “ACCUCACAUGAGGAUCACCCAUGUCAGGAUAUACAAACCGUGUAAAGACACGGUCGUAGUAGAAGGGACUAUGG [Telalebees] (puzzle: Exclusion 1)”: under setting [2], the “apparent KD of MS2 coat protein” value came out at 59.1 nM.

Regarding “ACCUCACAUGAGGAUCACCCAUGUCAGGAUAUACAAGAAAAUAACCGGAAAGACCGGAGUAGAAGGGACAUAAG [Arisus] (puzzle: Exclusion 1)”, the “apparent KD of MS2 coat protein” value is, setting by setting: under setting [3], 30.3 nM; under setting [2], 16.2 nM; under setting [4], 17.1 nM.
